The values that follow come from patent US20230130599A1 (BEIJING QL BIOPHARMACEUTICAL, published 2023).

This experiment has as its target T1, human GFRAL (human, UniProt Q6UXV0 19-394).
T1 sequence (looked up): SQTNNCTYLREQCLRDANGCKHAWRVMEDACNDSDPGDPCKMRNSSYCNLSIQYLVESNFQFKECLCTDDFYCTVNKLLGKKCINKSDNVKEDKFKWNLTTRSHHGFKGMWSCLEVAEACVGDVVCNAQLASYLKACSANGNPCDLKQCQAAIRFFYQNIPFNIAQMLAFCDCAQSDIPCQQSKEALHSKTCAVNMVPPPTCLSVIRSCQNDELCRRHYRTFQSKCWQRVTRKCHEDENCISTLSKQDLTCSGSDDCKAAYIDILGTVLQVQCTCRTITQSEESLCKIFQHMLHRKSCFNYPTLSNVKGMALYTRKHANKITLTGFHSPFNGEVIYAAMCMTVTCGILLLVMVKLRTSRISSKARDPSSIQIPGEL
The experiment in a line: cell-based or functional assay.

B1: Native GDF15 (SEQ ID NO: 9) (ligand)
chain: ARNGDHCPLGPGRCCRLHTVRASLEDLGWADWVLSPREVQVTMCIGACPSQFRAANMHAQIKTSLHRLKPDTVPAPCCVPASYNPMVLIQKTDTGVSLQTYDDLLAKDCHCI
Turning to B1, the “1% HSA GDF15 activity (EC50, pM); SRE luciferase reporter” value amounted to 8.2 pM and the “HSA free GDF15 activity (EC50, pM); SRE luciferase reporter” value turned out to be 10.3 pM.
